Assay [1] addresses Bacillus anthracis Protective Antigen (Bacillus anthracis, UniProt P13423 30-764). The assay can be described thus: SPR (BIAcore 3000), PA amine-coupled to CM5 chip, antibody as analyte.
Assay [2] addresses T1, GST fusion of protective antigen domain 1 (Bacillus anthracis, UniProt P13423 30-287).
T1 construct: domain: 1
The assay can be described thus: ELISA, plate coated with GST-PA domain protein, goat anti-human IgG HRP.

Assay [3] has as its target T2, GST fusion of protective antigen domains 1 to 3 (Bacillus anthracis, UniProt P13423 30-624).
T2 construct: domain: 1 to 3
The description is as above.

For assay [4], the target named is T3, GST fusion of protective antigen domain 4 (Bacillus anthracis, UniProt P13423 625-764).
T3 construct: domain: 4
T3 sequence (P13423 625-764 limits assumed): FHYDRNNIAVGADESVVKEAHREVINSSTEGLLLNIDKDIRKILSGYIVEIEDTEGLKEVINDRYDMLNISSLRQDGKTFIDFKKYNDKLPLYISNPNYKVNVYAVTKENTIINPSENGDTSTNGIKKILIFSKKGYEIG
The description is as above.

Assay [5] has as its target T4, GST fusion of protective antigen domains 1 to 4 (Bacillus anthracis, UniProt P13423 30-764).
T4 construct: domain: 1 to 4
The description is as above.

Assay [6] concerns the target T5, GST fusion of protective antigen domains 3 to 4 (Bacillus anthracis, UniProt P13423 517-764).
T5 construct: domain: 3 to 4
Described as above.

The target in assay [7] is T6, GST fusion of protective antigen domains 1 to 2 (Bacillus anthracis, UniProt P13423 30-516).
T6 construct: domain: 1 to 2
T6 sequence (P13423 30-516 limits assumed): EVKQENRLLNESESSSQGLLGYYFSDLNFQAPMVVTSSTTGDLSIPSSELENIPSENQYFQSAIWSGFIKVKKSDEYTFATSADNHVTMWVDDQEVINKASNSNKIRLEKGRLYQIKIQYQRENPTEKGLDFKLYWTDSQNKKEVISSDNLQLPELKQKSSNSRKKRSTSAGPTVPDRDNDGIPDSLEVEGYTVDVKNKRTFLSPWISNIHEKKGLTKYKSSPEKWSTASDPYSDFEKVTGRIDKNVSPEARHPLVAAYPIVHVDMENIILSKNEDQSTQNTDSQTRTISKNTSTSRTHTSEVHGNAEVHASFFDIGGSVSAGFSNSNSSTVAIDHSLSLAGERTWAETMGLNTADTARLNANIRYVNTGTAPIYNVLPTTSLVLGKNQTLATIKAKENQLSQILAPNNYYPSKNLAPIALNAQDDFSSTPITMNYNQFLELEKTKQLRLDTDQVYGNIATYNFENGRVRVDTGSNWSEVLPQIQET
The assay is described as above.

Bacillus anthracis Protective Antigen, sequence (P13423 30-764 limits assumed): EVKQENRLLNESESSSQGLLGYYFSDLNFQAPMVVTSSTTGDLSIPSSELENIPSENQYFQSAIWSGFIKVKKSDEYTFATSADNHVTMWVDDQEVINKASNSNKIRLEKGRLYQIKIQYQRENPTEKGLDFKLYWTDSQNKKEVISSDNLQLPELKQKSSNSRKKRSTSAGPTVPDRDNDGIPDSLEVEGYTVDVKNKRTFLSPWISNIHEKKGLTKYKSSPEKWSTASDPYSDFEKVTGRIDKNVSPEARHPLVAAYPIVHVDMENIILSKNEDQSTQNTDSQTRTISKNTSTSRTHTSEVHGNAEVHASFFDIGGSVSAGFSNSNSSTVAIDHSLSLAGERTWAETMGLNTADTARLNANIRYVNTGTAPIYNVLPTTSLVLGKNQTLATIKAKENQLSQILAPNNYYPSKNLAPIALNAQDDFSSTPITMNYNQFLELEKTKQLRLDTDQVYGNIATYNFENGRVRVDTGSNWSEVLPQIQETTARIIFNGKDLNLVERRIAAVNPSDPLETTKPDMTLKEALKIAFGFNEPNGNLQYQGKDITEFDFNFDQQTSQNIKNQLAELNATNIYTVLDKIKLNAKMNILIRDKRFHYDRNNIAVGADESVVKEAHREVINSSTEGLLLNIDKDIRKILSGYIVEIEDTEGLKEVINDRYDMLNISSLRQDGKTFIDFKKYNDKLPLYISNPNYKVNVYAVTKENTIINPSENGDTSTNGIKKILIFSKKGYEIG
T2 sequence (P13423 30-624 limits assumed): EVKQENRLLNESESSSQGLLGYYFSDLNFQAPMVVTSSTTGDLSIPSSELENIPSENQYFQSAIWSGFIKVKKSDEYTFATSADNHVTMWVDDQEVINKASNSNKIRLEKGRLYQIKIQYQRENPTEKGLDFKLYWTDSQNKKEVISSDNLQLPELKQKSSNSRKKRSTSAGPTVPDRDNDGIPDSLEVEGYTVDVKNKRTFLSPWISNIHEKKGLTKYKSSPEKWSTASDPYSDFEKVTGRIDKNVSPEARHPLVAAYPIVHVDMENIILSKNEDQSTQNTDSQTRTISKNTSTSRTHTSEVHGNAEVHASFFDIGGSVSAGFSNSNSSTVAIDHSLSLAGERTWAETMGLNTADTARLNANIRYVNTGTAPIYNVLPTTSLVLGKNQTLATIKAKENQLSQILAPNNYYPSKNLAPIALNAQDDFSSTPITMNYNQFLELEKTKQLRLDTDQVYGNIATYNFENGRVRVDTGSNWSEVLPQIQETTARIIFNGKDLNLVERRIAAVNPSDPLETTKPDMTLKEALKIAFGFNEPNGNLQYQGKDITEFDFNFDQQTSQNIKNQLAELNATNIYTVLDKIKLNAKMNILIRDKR
T1 sequence (P13423 30-287 limits assumed): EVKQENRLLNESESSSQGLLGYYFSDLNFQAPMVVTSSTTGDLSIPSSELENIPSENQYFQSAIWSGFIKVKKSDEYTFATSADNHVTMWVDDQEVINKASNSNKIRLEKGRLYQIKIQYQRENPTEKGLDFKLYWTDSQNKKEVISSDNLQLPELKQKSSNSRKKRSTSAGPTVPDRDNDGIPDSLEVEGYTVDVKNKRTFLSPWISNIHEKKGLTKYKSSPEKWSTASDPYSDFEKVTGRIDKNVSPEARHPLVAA
T5 sequence (P13423 517-764 limits assumed): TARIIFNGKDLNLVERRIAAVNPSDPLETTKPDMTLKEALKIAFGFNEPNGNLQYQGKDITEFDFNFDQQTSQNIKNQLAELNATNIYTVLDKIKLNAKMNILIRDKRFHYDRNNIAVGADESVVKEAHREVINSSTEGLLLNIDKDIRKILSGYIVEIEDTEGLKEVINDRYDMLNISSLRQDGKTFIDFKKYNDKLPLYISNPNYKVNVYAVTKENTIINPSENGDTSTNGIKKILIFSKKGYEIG
T4 sequence (P13423 30-764 limits assumed): as the sequence (P13423 30-764 limits assumed) above

B1: human monoclonal antibody IQNPA-1 (antibody, V domains shown)
VH: QVQLVQSGAEVKKPGASVKVSCKASGYTFTSNAIQWVRQAPGQRLEWVGWINGGDGNTKYSQKFQGRVTISRDISASTAYMELSSLRSEDTAVYYCARHRLQRGGFDPWGQGTLVTVSS
VL: EIVLTQSPGTLSLSPGERATLSCRASQSVSYSSLAWYQQKPGQAPSLLIYGASSRATGIPDRFSGSGSGPDFTLTISRLEPEDFAVYYCQHYGNSPYTFGQGTKLEIKR
The molecule B1 had a Ka in assay [1] of 8.31e+09 M⁻¹. This molecule also gave a Kd in assay [1] of 0.12 nM. Further, the koff in assay [1] is 1.93e-05 s⁻¹. Moreover, in assay [1], the kon was determined as 160000 M⁻¹ s⁻¹. For the same molecule, the End point titre in assay [2] was under 100; in assay [3], under 100; in assay [4], 256000; in assay [5] it was 256000; in assay [6] it was 256000; in assay [7] it was under 100.

B2: human monoclonal antibody IQNPA-2 (antibody, V domains shown)
VH: B1 VH
VL: B1 VL
In assay [1], B2 registered a Ka of 9.86e+09 M⁻¹. In addition, the affinity in assay [1], expressed as Kd, was 0.101 nM. The koff in assay [1] turned out to be 1.81e-05 s⁻¹. Moreover, the kon in assay [1] amounted to 178000 M⁻¹ s⁻¹. Moreover, the End point titre in assay [2] was under 100; in assay [3] it was under 100; in assay [4] it was 128000; in assay [5], 128000; in assay [6], 256000; in assay [7], under 100.

These data come from patent publication US20060258842A1 (IQ THERAPEUTICS, published 2006).
